Experimental data as given in patent US9605064B2, “Methods and compositions for treatment of skin disorders” (AbbVie Biotechnology Ltd, priority 2006, dated 2017).
“And” between values parts separate entries of the source, which are not always exact repeats. Identical values can stand only once. Marks after values point to notes of the source that are not given here.

Key:
[1] = tested on: patients with moderate to severe plaque psoriasis; assay: PASI response and relapse, 12-week open-label weekly therapy then randomized eow or withdrawal; type: in vivo, human
[2] = tested on: patients with moderate to severe psoriasis; assay: PASI 75 response, pooled Phase II (M02-528), CHAMPION and REVEAL by prior systemic therapy; type: in vivo, human; settings: for PASI 75 Response: Overall: pooled studies, ITT, missing = nonresponder
Method: For the Phase III studies, study investigators collected patient histories of use of systemic psoriasis treatments over lifetime and response to systemic treatments administered within 12 months of study entry (patient recall of response to treatments administered more than 12 months before enrollment was not collected). For the Phase II study, patient histories of use of systemic treatments for psoriasis administered within 12 months of study entry and response to treatment within 12 months were collected. PASI response rates were assessed through Week 12 for the Phase II study and through Week 16 for the Phase III studies. Intention-to-treat analyses were conducted, with patients with missing PASI responses considered non-responders.

[3] = tested on: patients with severe psoriasis who were non-responders to high-dosage etanercept; assay: ESR and CRP, open-label adalimumab in non-responders to high-dosage etanercept; type: in vivo, human; settings: Week 12; individual patients 1-5 (c1-c5); weekly adalimumab
Source text: This was an open-label prospective evaluation of adalimumab (HUMIRA®, Abbott Laboratories, Abbott Park, Ill., USA). Patients who were non-responders to etanercept were recruited from the Severe Psoriasis Clinic at St John's Institute of Dermatology in London. […] Inclusion criteria included male and female patients more than 18 years of age with plaque psoriasis (Table 98). The study was approved by St Thomas' Research Ethics Committee, and informed consent was obtained from all participants.

[4] = tested on: adult patients with moderate to severe chronic plaque psoriasis; settings: in vivo
[5] = tested on: patients with chronic plaque psoriasis; settings: in vivo
Source text: This 16-week, multicenter, open-label, Phase IIIb trial enrolled patients with chronic plaque psoriasis who were having a suboptimal response to ETN (Physician's Global Assessment [PGA]≧mild with months of therapy, or ≧3 months of therapy and deterioration of efficacy), MTX (PGA≧mild with ≧4 months of therapy), or narrow-band ultraviolet B (NB-UVB) phototherapy (PGA moderate with months of therapy). […] The primary endpoint was the proportion of patients who achieved PGA of clear or minimal at week 16. A secondary endpoint was the proportion achieving ≧1 grade of PGA improvement. Safety was assessed throughout the study. Efficacy analyses were intention to treat, with nonresponder imputation used for missing data. Efficacy and safety results were analyzed overall and for each prior-treatment group.

[6] = tested on: adult patients with moderate to severe chronic plaque psoriasis; assay: Adverse events, REVEAL 52-week Phase III trial
[7] = tested on: patients with moderate to severe chronic plaque psoriasis; assay: Adverse events, CHAMPION 16-week Phase III trial; settings: 16-week study
Source text: The study was a multi-center, 16-week, randomized controlled Phase III trial. The main inclusion criteria included: • Clinical diagnosis of psoriasis for ≧1 year • Affected body surface area (BSA)≧10% • Psoriasis Area and Severity Index (PASI)≧10 The main exclusion criteria was previous use of MTX or systemic anti-TNF therapy.

[8] = tested on: patients with moderate to severe chronic plaque psoriasis; assay: Adverse events, open-label extension of CHAMPION
[9] = Week 4, open-label 40 mg weekly, missing = non-responder
[10] = Week 8, open-label 40 mg weekly, missing = non-responder
[11] = Week 12, open-label 40 mg weekly, missing = non-responder
[12] = Week 24, randomized at Week 12 to 40 mg eow, missing = non-responder
[13] = open-label 40 mg weekly, Week 12
[14] = Adalimumab Treatment Group (540.5 PY)
[15] = Adalimumab Treatment Group, 52 weeks (540.5 PYs)
[16] = Period A, adalimumab-treated patients
[17] = MTX N = 110, Adalimumab N = 107
[18] = through Week 24 of the OLE (N = 95), AEs occurring ≧5% of patients
[19] = through Week 24 of the OLE (N = 95), MTX patients transitioned to adalimumab 40 mg eow

Adalimumab: a human anti-TNF mAb, described in U.S. Pat. No. 6,090,382 as D2E7 (HUMIRA, Abbott Laboratories)
PASI50 response, Patients (%) [1, 9]: 59% | PASI75 response, Patients (%) [1, 9]: 26% | PASI90 response, Patients (%) [1, 9]: 9% | PASI50 response, Patients (%) [1, 10]: 84% | PASI75 response, Patients (%) [1, 10]: 55% | PASI90 response, Patients (%) [1, 10]: 30% | PASI50 response, Patients (%) [1, 11]: 92% | PASI75 response, Patients (%) [1, 11]: 30% | PASI90 response, Patients (%) [1, 11]: 47% | PASI50, Patients (%) [1, 12]: 78% | PASI75, Patients (%) [1, 12]: 68** % | PASI90, Patients (%) [1, 12]: 47** % | PASI 50 response rate ([1]; open-label 40 mg weekly, Week 2): 28% | PASI 50 response rate [1, 13]: 92% | PASI 75 response [1, 13]: 76.4% | PASI 90 response [1, 13]: 47.3% | patients who achieved ≧PASI 50 responses ([1]; patients exposed to alefacept within the past year, Week 12): 6/6 | patients who achieved ≧PASI 50 responses ([1]; patients exposed to efalizumab within the past year, Week 12): 14/15 | patients who achieved ≧PASI 50 responses ([1]; patients exposed to etanercept within the past year, Week 12): 12/14 | patients who achieved ≧PASI 50 responses ([1]; patients exposed to infliximab within the past year, Week 12): 4/4 | PASI 75 Response: Overall ([2]; Week 4): 19.4% | PASI 75 Response: Overall ([2]; Week 12): 68.1% | PASI 75 Response: Lack of Response: MTX ([2]; Week 16, patients with prior lack of response to MTX (N = 32)): 65.6% * (N = 32) | PASI 75 Response: Lack of Response: Cyclosporine ([2]; Week 16, patients with prior lack of response to cyclosporine (N = 7)): 71.4% (N = 7) | PASI 75 Response: Lack of Response: Oral PUVA ([2]; Week 16, patients with prior lack of response to oral PUVA (N = 6)): 83.3% (N = 6) | PASI 75 response rate ([2]; overall (n=921), Week 16): 72.1% | PASI 75 response rate ([2]; overall (n=966), Week 4): 19.4% | PASI 75 response rate ([2]; patients who had failed to respond to systemic therapy (n=152), Week 16): 70.4% | PASI 75 response rate ([2]; patients who had failed to respond to systemic therapy (n=160), Week 4): 15.6% | PASI 75 response rate ([2]; patients who had received systemic therapies (n=491), Week 16): 72.7% | PASI 75 response rate ([2]; patients who had received systemic therapies (n=511), Week 4): 21.7% | CRP [3]: 7 mg/L and < 5 mg/L (3×) and recorded/<5 mg/L | ESR [3]: 13 mm/hr and 12 mm/hr (2×) and 2 mm/hr | Infectious AEs, percentage [4]: 28.9‡ % | Upper Respiratory Tract Infection [4]: 59 (7.2) n (%) | serious infection [5]: One subject | lymphomas ([6]; 52-week study): no lymphomas were diagnosed | opportunistic infection ([6]; 52-week study): One case of oral candidiasis | tuberculosis ([6]; 52-week study, patient PPD+ve at baseline, non-compliant with INH prophylaxis): one case of presumptive tuberculosis | Allergic Reaction, rate [6, 14]: 0.002 Event/PY | Congestive Heart Failure, rate [6, 14]: 0.002 Event/PY | Demyelinating Disorder, rate [6, 14]: 0 Event/PY | Injection Site Reaction, rate [6, 14]: 0.017 Event/PY | Lupus-like Syndrome, rate [6, 14]: 0 Event/PY | Lymphoma, rate [6, 14]: 0 Event/PY | Malignancies, excluding NMSC + lymphoma, rate [6, 14]: 0.004 Event/PY | Non-melanoma skin cancers, rate [6, 14]: 0.013 Event/PY | Tuberculosis (TB), rate [6, 14]: 0.002 Event/PY | AEs leading to withdrawal, rate [6, 15]: 0.078 Event/PY | Any AE, rate [6, 15]: 3.991 Event/PY | Serious AEs, rate [6, 15]: 0.061 Event/PY | Allergic Reaction, rate ([6]; Period A (250.2 PY)): 0.004 Event/PY | Congestive Heart Failure, rate ([6]; Period A (250.2 PY)): 0.004 Event/PY | Demyelinating Disorder, rate ([6]; Period A (250.2 PY)): 0 Event/PY | Injection Site Reaction, rate ([6]; Period A (250.2 PY)): 0.276 Event/PY | Lupus-like Syndrome, rate ([6]; Period A (250.2 PY)): 0 Event/PY | Lymphoma, rate ([6]; Period A (250.2 PY)): 0 Event/PY | Malignancies, excluding NMSC + lymphoma, rate ([6]; Period A (250.2 PY)): 0.008 Event/PY | Non-melanoma skin cancers, rate ([6]; Period A (250.2 PY)): 0.016 Event/PY | Tuberculosis (TB), rate ([6]; Period A (250.2 PY)): 0 Event/PY | AEs leading to withdrawal, rate ([6]; Period A (250.2 PYs)): 0.072 Event/PY | Any AE, rate ([6]; Period A (250.2 PYs)): 4.616 Event/PY | Serious AEs, rate ([6]; Period A (250.2 PYs)): 0.068 Event/PY | AEs leading to withdrawal, percentage ([6]; Period A (N = 814)): 1.7% | Allergic Reaction, percentage ([6]; Period A (N = 814)): 1% | Any AE, percentage ([6]; Period A (N = 814)): 62.2‡ % | Congestive Heart Failure, percentage ([6]; Period A (N = 814)): 1% | Demyelinating Disorder, percentage ([6]; Period A (N = 814)): 0% | Injection Site Reaction, percentage ([6]; Period A (N = 814)): 6.9% | Lupus-like Syndrome, percentage ([6]; Period A (N = 814)): 0% | Lymphoma, percentage ([6]; Period A (N = 814)): 0% | Malignancies, excluding NMSC + lymphoma, percentage ([6]; Period A (N = 814)): 0.2% | Non-melanoma skin cancers, percentage ([6]; Period A (N = 814)): 0.5% | Opportunistic Infections, excluding TB, percentage ([6]; Period A (N = 814)): 0% | Serious AEs, percentage ([6]; Period A (N = 814)): 1.8% | Serious Infectious AEs, percentage ([6]; Period A (N = 814)): 0.6% | Severe Infectious AEs, percentage ([6]; Period A (N = 814)): 0.7% | Tuberculosis (TB), percentage ([6]; Period A (N = 814)): 0% | Nasopharyngitis ([6]; Period A (N = 814), common AE ≧5%): 45 (5.3) n (%) | patients with serious AEs ([6]; Period A (weeks 0-16)): 1.8% | Nasopharyngitis [6, 16]: 5.3% | Sinusitis [6, 16]: 2.7% | upper respiratory tract infections [6, 16]: 7.2% | Any AE [7, 17]: 79 (74) n (%) | Any AE leading to discontinuation [7, 17]: 1 (1) n (%) | Any SAE [7, 17]: 2 (2) n (%) | Arthralgia ([7]; common AE in ≧5% of patients): 6 (6) n (%) | Gamma-Glutamyltransferase Increased ([7]; common AE in ≧5% of patients): 2 (2) n (%) | Headache ([7]; common AE in ≧5% of patients): 14 (13) n (%) | Nasopharyngitis ([7]; common AE in ≧5% of patients): 30 (28) n (%) | Nausea ([7]; common AE in ≧5% of patients): 4 (4) n (%) | Pruritus ([7]; common AE in ≧5% of patients): 4 (4) n (%) | Rhinitis ([7]; common AE in ≧5% of patients): 3 (3) n (%) | Rhinorrhea ([7]; common AE in ≧5% of patients): 3 (3) n (%) | Viral Infection ([7]; common AE in ≧5% of patients): 0 (0) n (%) | rebound ([8]; first 24 weeks of the OLE): No cases of rebound were observed | Injection-site reaction, Percentage of Patients [8, 18]: 5% | Nasopharyngitis, Percentage of Patients [8, 18]: 6% | AEs leading to withdrawal, Percentage of Patients [8, 19]: 1% | Any AE, Percentage of Patients [8, 19]: 47% | Any malignancy, Percentage of Patients [8, 19]: 0% | Rebound psoriasis, Percentage of Patients [8, 19]: 0% | Serious AE, Percentage of Patients [8, 19]: 5%
